Assay: yeast display, Sf9 membrane polyspecificity reagent, FACS + sequencing; frameworks hold sequencing errors
Outline: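 Genes from sorted yeast were amplified by colony PCR, read by MiSeq 2 × 250 sequencing and filtered on CDR length. These cells carried a synthetic nanobody library in Saccharomyces cerevisiae BJ5465 and were sorted by FACS into low and high (top ~1%) gates on anti-HA and streptavidin fluorescence. Polyreactivity is labelled according to the gate of origin.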

Row | Sequence | polyreactivity (PSR sort gate)
1 | QVQHVESGGGLVQAGGSLRLSCAASGSIFDVYTMGWYRQAPGKQRELVAAINTGGGSTYYADSVKGRFTISRDNAKNTVYLQMISLKPEDTAVYYCAASVYHYGPLYYWGQGTQVTVSS | low polyreactivity
2 | QVQLVESGGGLVQAGDSLRLSCAASGSTFTRNAMGWYRQAPGKERDLVASITRGGSTYADSVKGRFTISRDNAKNTVYLQMYSLKPEDTAVYYCAKSVTCWRGLWYTPRNYFWGQGSQVTVSS | high polyreactivity
3 | QVQLVESGGGLVQAGGSLRLSCAASGYTFDGYAMGWYRQAPGKERELVAVITKSGGRKYYADSVKGRFTISRDNAKNTVYLQMNSLKREVTAVYYCAADDSGTKDIVEGEYWGQGTQVTVSS | high polyreactivity
4 | QVQLVESGGGLVQAGGSLRLSCAASGNTFAQYGMGWYRQAPGKEREFVAAITRRGGSTYYADSVKGRFTISRDNAKNTVYLQMNSLKPEDTAVFYCAAGHYRRRYPSYGLQEYDYWGQGTQVTVSS | high polyreactivity
5 | QVQLVESGGGLVQAGGSLRLSCAPSGITFRFYAMGWYRQAPGKEREFVAAISRSDSSYYADSVKGRFTISRDNAKNTVYLHMNSLKPEDSAVYYCAADSYRSAQGLDYWGQGSQVTVSS | high polyreactivity
6 | QVQLVESGGGLDQAGGSLRLSCAASGLIFGNYANRGYTQAPGKERELVAALSSGGSTHYADSVKGRFTISRDNAKNTVYLQMHSLNPEDTAVYYCAAGYRYAGNGQIANTGGYYWGQGTQVTVSW | low polyreactivity
7 | KLQLVESGGGLVQAGGSLRLSCASSGSIFVWYAMGWYIQAPGKDRELVARITSGGRTNYADSVKGRFTISRDNAKNTVYLQMNSLKPEDTAVFYCAAGRVSWSPYYYWGQGTQVTVSS | high polyreactivity
8 | QVQLVESGGGLVQAGGSLRLSCAASGRIFNRYAMGWYSQAPGKERELVARITSSGSTNYADSVKGRFTISRDNAKNTVYLQMNSLKPEDTAVYYCAARKLFIPKYYYWGQGTQVTVSS | high polyreactivity
9 | QVQLVESGGGLVQAGGSLRLSCAASGRTFQYYTMGWYRQAPGKERELVAAIRRGGSTYYADSVKGRFTISRDNAKNTVYLEMNSLKPEDTAVYYCAALYAFSLTARGMEYWGQGTQVTVSS | high polyreactivity
10 | QVQLVESGGGLVQAGGSLRLSCAASGISDWYAMGWYRQAPGKERELVASITDGGSTKYADSVKGRFTISRDNAKNTVYLQMNSLKPEDTAVYYCNTTFRVYFSRSWWSRYYYWGLGTQVTVSS | low polyreactivity
11 | QVQLVESGGGIVQAGGSLRLSCAASGSTFDRYAMGWYRQAPGKERALVAAISWSGGSTYYADSVKGRFTISRDNAKNTVFLQMNSLKPEDTAVYYCNTASYYRRFHKYDYWGQGTQVTVSS | high polyreactivity
12 | QVQLVESGGGLVQAGGSLRLSCAASGYTFPLYAMGWYRQAPGKERELVADINIGGASTYYADSVKGRFTISRDNAKNTVYLQMNSLKPEDTAVYYCAADSRKRQGYGYWGQGTQVTVSS | low polyreactivity
13 | QVQLVESVGGLVQAGGSLRLSCAASGSIFDWNAMGWYREAPGKERELVASIDWDGGRTYYADSVKGRFTISRDNAKNTVYLQMNSLKPEDTAVYYCAATYYYDWWRGRWSPHIMDYWGQGTQVTVSS | low polyreactivity
14 | QVQLVESGGCLVQAGGSLRLSCAASGRTFRHYGMGWYRPAPRKERELVAAISRSGGRTYYADSVKGRFTISRDNAKNTVYLQMNSLKPEDTAVYYCNAPYDVTTYAFDYWGQGTQVTVSS | high polyreactivity
15 | QVQLVESGGGLVQAGGSLSLSCAASGSIFASYVMGWYRPAPGKEREMVAGIDTSGGSTFYADSVKGRFTISRDNAKNTVYLQMNSLKPEDTAVYYCAADTWYRGRWEFDYWGQGTQVTVSS | low polyreactivity
16 | QVQLVESGGGLVQAGASLRLSSAASGSTFKYYTMGWYRQAPGKERELVAAISFSGARTYYADSVKGRFTISRDNAKNTVYLQMNCLIPEDTAVYYCAKASSYSRRYEYWGQGTQVTVSS | high polyreactivity
17 | QVQLVESGGGLVQAGGSLRLSCAASGSIFRRNAMGWYRQAPGKERELVAGISGGGSTYYADSVKGRFTISRDNAKNTVYLQMNSLKPEDTAVYYCSTDKHYRWAGFDYWGQGTQVTVSS | low polyreactivity
18 | QVQLVESGGGLVQAGGSLRLSCAASGRTFRYYGMGWYRQAPGKERELVAAISWSGGSTYYADSVKGRYTISRDNAKNSVYLQMNSLKPEDTAVYYCAADGQYYYGFDYWGQGTQVTVSS | high polyreactivity
19 | QVQLVESGGGLVQAGGSLRLSCAASGSIFHPYAMGWSRQAPGKERELVASISKRGGSTYYADSVKGRFTISRDNAKNTVYLQMNSLKPEDTAVYYCAKLYTIGYDYWGQGTQVTVSS | low polyreactivity
20 | QVQLVESGGGLVQAGGSLRLSCAASGRIFSWYTMGWYRQAPGKERELVAGITWSGGSTYYADSVKGRFTISRDNAKNTVYLQMNSLKPEDTAVYYCAAGGVSFGYYKYYYWGQGTQVTVSS | high polyreactivity
21 | QVQLVESGGGLVQAGGSLRLSCAASGRIFYHYAMGWYRQAPGKERELVAGINYRGGSTTYADSVKGRFTISRDNAKNTVYLQMNSLKPEDTAVYYCATLYPWKFPIRETGFDSWGQGTQVTVSS | low polyreactivity
22 | QVQLVESGGGLVQAGGSLRLSCAASGSTFADNAMGWYSQARGKAGEFVAGISTNGGSTYYADSVKGRFTISRDNAKNTVYLQMNSLKPEDTAVYYCSAVNYYDQYGDYYWGQGTQVTVSS | low polyreactivity

Row | Sequence | polyreactivity (PSR sort gate)
23 | QVQLVESGGGLVQAGGSLRLSCAASGSTFVLNAMGWYRQAPGKERELVAAITGSGSTKYADSVKGLFTISRDNAKNTVYLQMNSLKPEDTAVYYCATAAVYPIPFGYWGQGTQVTVSS | low polyreactivity
24 | QVKLVESGGGLVQAGGSLRLSCAASGSIFSRNTIGCDRQEPGKERELVAGISSSGSRTYYADSVKGRFTISRDNAKNTVYLQMNSLIPEDTAVYYCAAEHQRSRGRRYYIGYDYWGQGTQVTVSS | low polyreactivity
25 | QVQLVESGGGLVQAGGSLRLSCAASGRTFFYNAMGWYRQAPGKERELVAAISYSGGSTYYADSVKGRFTISRDNAKNTVYLQMNSLKPEDTAVYYCAAYHYARYRTSAGNYYWGQGTQVTVSS | high polyreactivity
26 | QVQLVESGGGLVQAGGSHRLSCAASGFTFRHYTMGWYRQAPGKERELVAVITRSGGSTYYADSVKGRFTISRDNAKNTVYLQMNSLKPEDTAVYYCAVGRTYNADGYWGQGTQVTVSS | high polyreactivity
27 | QVQLVESGGGLVQAGGSLRLSCAASGRILFHYAMGWYRRAPGKERELVAAITWRGGGTHYADSVKGRFTISRDNAKNTVYLQKNSLKPEDTAVYYCNAEYNGYFSRSGFYYWGQGTQVTVSS | low polyreactivity
28 | QVQHVESGGGLVQAGGSLRLSCAASGRTLYNYAMGWYRQAPGKEWELVAAISGSGGSTYYADSVKGRFTISRDNAKNTVYLQMNSLKPEDTEVYFCAKYRGIYPDVRGTYYWGQGTQVTVSS | high polyreactivity
29 | QVQLVESGGGVVQAGGSLRLSCASSGSIFGPYVMGWYRQAPGKERELVAAISKSGGSTYYADSVKGRFTISRDNAKNTVFLLMNSLKPEDTAVYYCATDYLGGGKRYYYWGQGTQVTVSS | high polyreactivity
30 | QVQHVESGGGLVQAGGSLRLSCAASGRIFYGNAMGWYRQAPGKERELVAGITRSSGTSTDYADSVKGRFTISRDNAKNSVYLQMNSMKPEDCAVYYCAAPPDSYYFYKVPVVPYDYWGQGTQVTVSS | low polyreactivity
31 | QVQLVESGGGLVQEGGSLRLSCADSGSTFASYAMGWNRQAPGKERELVAAITDSGGSTYYADSVKGRFTISRDNAKNTVYLQMNSLKPEVTAVYDCAAEDQESNAAGGYWGQGTQVTVSS | low polyreactivity
32 | QVQLVESGGGLVQAGGSLRLSCAASGSTFPFYDMGWYRQAPGKERELVAAIRYTGNTYYADSVKGRFTISRDNAKNTVYLQMNSLKPEDTAVYYCAADADYWAYGYWGQGTQVTVSS | low polyreactivity
33 | QFQLVESGGGLVQAGGSLRLSCAASGFNFQYNAIGWYRQAPGKERELVAAITWTGTSTYADSVKGRFTISRDYAKNTVYLQMNSLKPEDTSVYYCAARYYAPRWFRYDYWGQGTQVTVSS | low polyreactivity
34 | QVQLVESGGGLVQAGGSLRLSCAASGSIFDHTKAMGRYRQSPGKERELVAGITRGGSTNYADSVKGRFTISRDNAKNTFYLQMNSLKPEDTAVYYCAKAMPAKFYSEAGYDYWGQGTQVTVSS | low polyreactivity
35 | QVQLVESGGGLVQAGGSLRLSCAASGGTFSYYTMGWYRPAPGKERELVAAISSGGSTNYADSVKGRFTISRDNAKNTVYLQMNSLKPEDTAVYYCAVRSGRRNYDRPAFGYWGQGTQVTVSS | high polyreactivity
36 | QVQLVESGGGLVQAGGSLRLSCAASGYILRSHAMGWYRQAPGKEWEFVAAITYSGGSTYYADSVKGRFTISRDNAKNTVYLQLNSLKPEVTAVYYCSKTTRYPRGYGYWGQGTQVTVSS | low polyreactivity
37 | QVTLVESGGGLVQAGGSLRLSCAASGFTFYIYAMGWYRQAPGKERELVAAISSSGTRTYYADSVKGRFTISRDHAKNTVYLQMNSLKPEDTAVYYCAAALGWYSAFGYWGQGTQVTVSS | high polyreactivity
38 | QVQLVESGGGLVQAGGSLRLSCAASGRIFTGNALGWYRPAPGKERELVAVINRTGGSTYYADSVKGRFTISRDNAKNTVYLQMNSLKPEETAVYSCAAYVPWGWRYGYNYWGQGTQVTVSS | high polyreactivity
39 | QVQLQESVGGLVQAGGILRLSCAACGNIFPSAVMGWYRQALGKEREFVATINSGSNTYYADSVKGRFTISRDNATNTVYLQMNSLKLEDTAVYYCAAYFKLPAWHTYWGQGTQVTVSS | low polyreactivity
40 | QVQLVESGGGLVQAGGSLRLSCAASGSTFVPYAMGWYRQAPGKERELVAAINIGGRTNYADSVKGRFTISRDNAKNTVYLQMNSLKPEDTAVYYCAAEWGYYARSQYYYWGQGTQVTVSS | low polyreactivity
41 | QVQLVESGGGLVQAGGSLRLSCAASGFTLQQYTMGWYIQAPGKERELVAAISTSGVRTYYADSVKGRFTISRDNAKNTVYLQMNSLKPEDTAVYYCNAAWVYGIGWYSGYDYWGQGTQVTVSS | high polyreactivity
42 | QVQLVESAAGLVQAGGSLRLSCAPSGIIFGSYAMGWYRQEPGKESELVAAISRGTSTYYADSVKGRFTISRDNAKNTVYLQMNSLKPEDTAVYYCAATRQQYGPLSRFVYWYYYWGQGTQVTVSS | low polyreactivity
43 | QVQLVESGGGLVQAGGSLRLSCAASGRTFPSYTMGWYRQAPGKERELVAAITWTGGSTYYADSVKGRFTISRDNAKNSVYLQMNCLKPEDTAVYYCADDDYWGQGTQVTVSS | low polyreactivity
